Here are results for seven molecules from article PMC3256971 (The Journal of Experimental Medicine, 2011).

For one assay, the system named is B16A-dKO mice. Kind of assay: Immunization and IL-2 ELISPOT in B16A-dKO mice. It counts as in vivo, mouse. The note with it: 10 nmol in CFA, restimulation at 10 µM, Fig. 4 c.
Assay [1] relates to I-A^g7. The note with it: ref Yu et al., 2000; Levisetti et al., 2007; cited from earlier work.
Assay [2] concerns I-A^g7. The conditions noted are these: ref Yu et al., 2000; Levisetti et al., 2007; cited from earlier work. The source holds these as a separate data set.
Assay [3] deals with soluble I-A^g7 (mouse). As to the kind of experiment: radioligand binding.
Assay [4] deals with soluble I-A^g7 (mouse). As to the kind of experiment: SDS stability of the complex.

As to SHLVEALYLVCGERG [B:9–23], the “IL-2 ELISPOT response to register 1 after immunization” value with B16A-dKO mice is reported as “detected a response to register 1 similar to that found in NOD mice”. Besides, in the assay with I-A^g7 [1], the “binding affinity to I-A^g7” value was “very low affinity”. Also, the “rate of dissociation from I-A^g7” value in the assay on I-A^g7 [2] was “fast rate of dissociation”.
One may read the IC50 as the point on the concentration scale where inhibition reaches its midpoint. Low readings indicate inhibition by little substance, high ones a need for much substance. For “nested B:12–21 peptide with flanking residues”, in the assay with soluble I-A^g7 (mouse) [3], the IC50 came to 500 nM.
Take “radioactive peptide bearing the nested register 1:12–20 sequence (added N-terminal tyrosine, B16 tyrosine to phenylalanine)”: the percent of the bound peptide lost in the first 20 min with soluble I-A^g7 (mouse) [3] is > 50%.
Consider “radioactive peptide bearing the nested register 2:13–21 sequence (added N-terminal tyrosine, B16 tyrosine to phenylalanine)”, for which, in the assay with soluble I-A^g7 (mouse) [4], the percent SDS stable stood at 70%.
For the molecule TEGVEALYLVCGGGS [nested register 1:12–20 peptide (insulin B:12–20 with flanking residues)], the IC50 in the assay with soluble I-A^g7 (mouse) [3] is 1400 nM.
The same measure, in the same setting: to TEGEALYLVCGEGGS [nested register 2:13–21 peptide (insulin B:13–21 with flanking residues)] belongs 700 nM; to TEGALYLVCGERGGS [nested register 3:14–22 peptide (insulin B:14–22 with flanking residues)], 5500 nM.
